From US20240384250A1, “FIBROBLAST GROWTH FACTOR 23 MODULATING COMPOUNDS” (THE UAB RESEARCH FOUNDATION, priority 2021, published 2024)

How the values were obtained:
[1] = tested on: adult rat ventricular myocytes (ARVMs); assay: Calcium transients and cell shortening in adult rat ventricular myocytes; format: cell-based
Experimental: As done before,^69 adult male Wistar rats (150-200 g) were killed and hearts were quickly removed and cannulated via the ascending aorta on a Langendorff system where they were retrograde perfused and digested by type II collagenase. Hearts were perfused with calcium-free Tyrode's solution supplemented with 0.2 mmol/L of ethyleneglycol-bis-((3-aminoethylether)-N,N, N′,N′-tetraacetic acid for 3 minutes. For the digestion, hearts were perfused with Tyrode's solution containing 0.1 mmol/L of CaCl2), 1 mg/ml of type II collagenase (Worthington), and 1 mg/ml of BSA for 3 to 4 minutes at room temperature. Cells were resuspended in Tyrode's solution containing 1 mmol/L of CaCl2). Tyrode's solution contains 130 mM NaCl, 5.4 mM KCl, 0.4 mM NaH2PO4, 0.5 mM MgCl2, 25 mM N-2-hydroxyethylpiperazine-N-2-ethanesulfonic acid, and 22 mM glucose. Adult rat ventricular myocytes (ARVMs) were loaded with the fluorescent Ca^2+ dye Fluo-3 AM (Thermo Fisher Scientific) for cytosolic Ca^2+ measurements. […] Cytosolic Ca^2+ transients were recorded under 1 Hz of field stimulation using 2 parallel platinum electrodes. […] Cell contraction was stimulated as the difference in cell length between rest and contraction (during electrical stimulation), expressed as a percentage of shortening of the cell length. […]

[2] = target: T1, FGF23/FGFR4 binding (Homo sapiens, UniProt P22455+Q9GZV9, R179Q); assay: Surface plasmon resonance, FGF23 binding to surface FGFR4 with heparin or sKL in solution
T1 construct: Fc-FGFR4 protein (human ectodomain) was immobilized; purchased R&D Systems human FGF23 2604FG025/CF; human FGFR4 685FR050
T1 sequence (Q9GZV9 25-251 R179Q): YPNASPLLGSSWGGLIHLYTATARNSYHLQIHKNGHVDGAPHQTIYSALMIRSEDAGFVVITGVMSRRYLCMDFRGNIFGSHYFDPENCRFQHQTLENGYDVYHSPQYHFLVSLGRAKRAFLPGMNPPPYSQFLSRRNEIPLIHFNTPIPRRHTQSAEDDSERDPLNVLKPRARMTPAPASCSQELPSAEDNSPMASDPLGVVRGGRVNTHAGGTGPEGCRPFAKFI
T1 sequence (P22455 22-369 limits assumed): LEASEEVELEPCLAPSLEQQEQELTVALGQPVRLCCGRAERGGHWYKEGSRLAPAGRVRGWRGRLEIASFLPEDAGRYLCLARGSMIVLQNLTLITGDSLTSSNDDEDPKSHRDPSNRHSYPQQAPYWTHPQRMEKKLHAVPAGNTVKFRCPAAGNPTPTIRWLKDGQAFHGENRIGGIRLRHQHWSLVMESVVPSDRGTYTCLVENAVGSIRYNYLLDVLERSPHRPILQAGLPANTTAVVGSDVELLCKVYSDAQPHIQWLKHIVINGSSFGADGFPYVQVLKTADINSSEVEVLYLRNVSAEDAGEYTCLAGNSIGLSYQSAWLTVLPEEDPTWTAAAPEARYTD
Experimental: For the direct quantitative analysis of label-free molecular interactions in real time, surface plasmon resonance studies were conducted using BIAcore T200 and T200 evaluation software (28975001, Cytiva). Sensor SA (BR100398) and CMS chips (BR100399) were from Cytiva. For the preparation of heparin chips, heparin (2 mg) and amine-PEG3-Biotin (2 mg, 21347, Pierce) were dissolved in 200 μl of H2O and 10 mg of NaCNBH3 was added. The reaction mixture was heated at 70° C. for 24 hours; an additional 10 mg of NaCNBH3 was added; and the reaction was heated at 70° C. for another 24 hours. After cooling to room temperature, the mixture was desalted with the spin column (3000 MWCO). Biotinylated heparin was collected, freeze dried, and used for chip preparation. Biotinylated heparin was immobilized to streptavidin chips according to the manufacturer's protocol. In brief, 20 μl of biotinylated heparin solution (0.1 mg/ml) in HBS-P running buffer (0.01 M N-2-hydroxyethylpiperazine-N′-2-ethanesulfonic acid, 0.15 M NaCl, 0.005% surfactant P20 [pH7.4]; BR100368, Cytiva) was injected over flow cell 2 of the streptavidin chip at a flow rate of 10 μl/min. The successful immobilization of heparin was confirmed by the observation of an approximately 200-resonance unit increase in the sensor chip. […] The response was monitored as a function of time (sensorgram) at 25° C.

B1: FGF23: recombinant fibroblast growth factor 23 protein from R&D Systems (protein)
chain: YPDTSPLLGSNWGSLTHLYTATARTSYHLQIHRDGHVDGTPHQTIYSALMITSEDAGSVVITGAMTRRFLCMDLHGNIFGSLHFSPENCKFRQWTLENGYDVYLSQKHHYLVSLGRAKRIFQPGTNPPPFSQFLARRNEVPLLHFYTVRPRRHTRSAEDPPERDPLNVLKPRPRATPVPVSCSRELPSAEEGGPAASDPLGVLRRGRGDARGGAGGADRCRPFPRFV
peak fluorescence [Ca2+]i transients (F/F0) ([1]; FGF23 10 ng/ml, 2 minutes perfusion): increased systolic
cell contraction (cell shortening) ([1]; FGF23 alone): increased cell contraction

B2: sKL: recombinant soluble α-klotho ectodomain, mouse aa 35-982 and human aa 34-981, FLAG- or Strep/His-tagged, purified from HEK293 cells (protein)
chain: EPGDGAQTWARFSRPPAPEAAGLFQGTFPDGFLWAVGSAAYQTEGGWQQHGKGASIWDTFTHHPLAPPGDSRNASLPLGAPSPLQPATGDVASDSYNNVFRDTEALRELGVTHYRFSISWARVLPNGSAGVPNREGLRYYRRLLERLRELGVQPVVTLYHWDLPQRLQDAYGGWANRALADHFRDYAELCFRHFGGQVKYWITIDNPYVVAWHGYATGRLAPGIRGSPRLGYLVAHNLLLAHAKVWHLYNTSFRPTQGGQVSIALSSHWINPRRMTDHSIKECQKSLDFVLGWFAKPVFIDGDYPESMKNNLSSILPDFTESEKKFIKGTADFFALCFGPTLSFQLLDPHMKFRQLESPNLRQLLSWIDLEFNHPQIFIVENGWFVSGTTKRDDAKYMYYLKKFIMETLKAIKLDGVDVIGYTAWSLMDGFEWHRGYSIRRGLFYVDFLSQDKMLLPKSSALFYQKLIEKNGFPPLPENQPLEGTFPCDFAWGVVDNYIQVDTTLSQFTDLNVYLWDVHHSKRLIKVDGVVTKKRKSYCVDFAAIQPQIALLQEMHVTHFRFSLDWALILPLGNQSQVNHTILQYYRCMASELVRVNITPVVALWQPMAPNQGLPRLLARQGAWENPYTALAFAEYARLCFQELGHHVKLWITMNEPYTRNMTYSAGHNLLKAHALAWHVYNEKFRHAQNGKISIALQADWIEPACPFSQKDKEVAERVLEFDIGWLAEPIFGSGDYPWVMRDWLNQRNNFLLPYFTEDEKKLIQGTFDFLALSHYTTILVDSEKEDPIKYNDYLEVQEMTDITWLNSPSQVAVVPWGLRKVLNWLKFKYGDLPMYIISNGIDDGLHAEDDQLRVYYMQNYINEALKAHILDGINLCGYFAYSFNDRTAPRFGLYRYAADQFEPKASMKHYRKIIDSNGFPGPETLERFCPEEFTVCTECSFFHTRKS
modifications: left off: small tags and cut ends
notes: recombinant soluble α-klotho ectodomain, mouse aa 35-982 and human aa 34-981, FLAG- or Strep/His-tagged, purified from HEK293 cells
sKL's effect on increasing FGFR4 affinity for FGF23 relative to heparin [2]: 4- to 5 fold
increase in FGF23/FGFR4 binding affinity ([2]; heparin or sKL in solution): approximately 13 fold
